In publication PMC9205905, “Core and rod structures of a thermophilic cyanobacterial light-harvesting phycobilisome” (Nature Communications, 2022):

Target: the molecule itself
Test: cryo-EM structure; PC rods dissociated from intact PBSs on the grid by dilution with 10 mM phosphate buffer (phosphate below 0.5 M); single-particle cryo-EM, no symmetry, 4.2 Å

B1: PC monomer (CpcA/CpcB αβ monomer) (complex)
chain 1: not shown
chain 2: MLDAFAKVVAQADARGEFLTNAQFDALSNLVKEGNKRLDAVNRITSNASTIVANAARALFAEQPQLIQPGGNAYTNRRMAACLRDMEIILRYVTYAILAGDSSVLDDRCLNGLRETYQALGTPGSSVAVAIQKMKDAAIAIANDPNGITPGDCSALMSEIAGYFDRAAAAVA
modifications: phycocyanobilin (PCB) at residue 84 (α84) | phycocyanobilin (PCB) at residues 84 and 155 (β84, β155)
stoichiometry N: 6
